From article PMC12547689

Columns and labels:
[1] = molecular target: GFP-diS1 (sfGFP H148C) (Aequorea victoria) [GFP: P42212]; test: fluorescence emission ratio (CRO–O^− : CRO–OH excitation); percentage of dimer after incubation with CuSO4 (1 mM; CuCl2 gave no discernible change for GFP-diS2), 50 mM Tris–HCl pH 8; monomer to disulphide-linked dimer
[2] = molecular target: GFP-diS1 (sfGFP H148C) (Aequorea victoria) [GFP: P42212]; test: fluorescence emission ratio (CRO–O^− : CRO–OH excitation); dimerisation kinetics with 1 mM CuSO4, 50 mM Tris–HCl pH 8, plate reader, excitation 388 nm and 483 nm, emission 516 nm; second order A + A → A2; apparent KD, estimated, non-equilibrium (covalent disulphide dimer); monomer to dimer
[3] = molecular target: GFP-diS2 (sfGFP H148C V206F) (Aequorea victoria) [GFP: P42212]; test: fluorescence emission ratio (CRO–O^− : CRO–OH excitation); percentage of dimer after incubation with CuSO4 (1 mM; CuCl2 gave no discernible change for GFP-diS2), 50 mM Tris–HCl pH 8; monomer to disulphide-linked dimer
[4] = molecular target: GFP-diS2 (sfGFP H148C V206F) (Aequorea victoria) [GFP: P42212]; test: fluorescence emission ratio (CRO–O^− : CRO–OH excitation); dimerisation kinetics with 1 mM CuSO4, 50 mM Tris–HCl pH 8, plate reader, excitation 388 nm and 483 nm, emission 516 nm; second order A + A → A2; apparent KD, estimated, non-equilibrium (covalent disulphide dimer); monomer to dimer

In the case of “GFP-diS1 (sfGFP H148C) (from UniProt P42212 1-238)”, the percent dimer after 1 h with CuSO4 [1] is reported as 55% and the Kd [2] is reported as over 25 µM.

“GFP-diS2 (sfGFP H148C V206F) (from UniProt P42212 1-238)” gave a percent dimer with CuSO4 [3] of 80% and a Kd [4] of 4.6 µM.
